Reference: patent US20180162947A1 (UCB, published 2018)
Where a chain is given by its changes, count along the chain named. Names may count otherwise.

Key:
[1] = target: T1, recombinant human CSF-1R (form not stated) (human, UniProt P07333 20-512, limits assumed); assay: BIAcore, experiment 3 of 3
T1 construct: for the ELISA no species is stated; also called recombinant CSF-1R; recombinant CSF-1R protein
Procedure: (§1) The assay format was capture of the anti-CSF-1R antibodies by immobilised anti-human IgG,F(ab′)₂, then a titration of hCSF-1R/Fc over the captured surface. BIA (Biomolecular Interaction Analysis) was performed using a BIAcore 3000 (GE Healthcare Bio-Sciences AB). All experiments were performed at 25° C. An AffiniPure F(ab′)₂ fragment goat anti-human IgG, F(ab′)₂ fragment specific (Jackson ImmunoResearch), was immobilised on a CM5 Sensor Chip (GE Healthcare Bio-Sciences AB) via amine coupling chemistry to a level of ˜5000 response units (RU). HBS-EP buffer (10 mM HEPES, pH 7.4, 0.15M NaCl, 3 mM EDTA, 0.005% Surfactant P20, GE Healthcare Bio-Sciences AB) was used as the running buffer with a flow rate of 10 μl/min.

[2] = target: T1, recombinant human CSF-1R (form not …); assay: BIAcore, experiment 2 of 3
Procedure: as §1

[3] = target: T1, recombinant human CSF-1R (form not …); assay: BIAcore, humanisation stage, crude cell supernatant
[4] = target: T1, recombinant human CSF-1R (form not …); assay: BIAcore, experiment 1 of 3
Procedure: as §1

[5] = target: T1, recombinant human CSF-1R (form not …); assay: BIAcore, mean of 3 (fourth row, unlabelled)
Procedure: as §1

[6] = target: T1, recombinant human CSF-1R (form not …); assay: BIAcore, DG/SG comparison, crude cell supernatant
[7] = target: human CSF-1R on cells (THP-1 cells, transfected HEK293F cells, primary human monocytes) (human, UniProt P07333 20-972); assay: cell-based or functional assay
Chain of human CSF-1R on cells (THP-1 cells, transfected HEK293F cells, primary human monocytes) (P07333 20-972): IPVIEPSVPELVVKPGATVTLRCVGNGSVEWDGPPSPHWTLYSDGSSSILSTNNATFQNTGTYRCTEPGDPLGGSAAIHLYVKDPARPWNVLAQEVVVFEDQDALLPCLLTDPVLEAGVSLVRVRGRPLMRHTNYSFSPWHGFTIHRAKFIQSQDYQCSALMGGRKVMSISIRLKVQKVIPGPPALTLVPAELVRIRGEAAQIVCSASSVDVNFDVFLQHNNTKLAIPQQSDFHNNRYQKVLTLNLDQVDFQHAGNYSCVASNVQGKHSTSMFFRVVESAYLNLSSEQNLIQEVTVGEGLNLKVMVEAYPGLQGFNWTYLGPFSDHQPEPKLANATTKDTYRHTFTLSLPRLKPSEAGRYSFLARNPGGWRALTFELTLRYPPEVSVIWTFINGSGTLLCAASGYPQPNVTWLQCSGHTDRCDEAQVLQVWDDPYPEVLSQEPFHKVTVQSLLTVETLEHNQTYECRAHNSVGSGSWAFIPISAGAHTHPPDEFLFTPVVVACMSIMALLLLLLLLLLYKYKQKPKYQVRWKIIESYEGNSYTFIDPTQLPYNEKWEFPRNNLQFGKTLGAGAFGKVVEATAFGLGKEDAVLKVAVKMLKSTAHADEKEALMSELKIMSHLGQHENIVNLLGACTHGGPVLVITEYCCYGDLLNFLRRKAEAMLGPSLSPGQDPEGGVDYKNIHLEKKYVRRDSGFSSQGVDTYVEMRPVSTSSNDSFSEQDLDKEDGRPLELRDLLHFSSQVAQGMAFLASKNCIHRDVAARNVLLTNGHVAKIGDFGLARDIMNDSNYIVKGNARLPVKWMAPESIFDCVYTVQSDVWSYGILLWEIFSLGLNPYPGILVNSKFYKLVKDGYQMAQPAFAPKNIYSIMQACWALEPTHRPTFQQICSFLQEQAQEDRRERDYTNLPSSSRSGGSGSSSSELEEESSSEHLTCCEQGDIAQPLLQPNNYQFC

T1 sequence (P07333 20-512 limits assumed): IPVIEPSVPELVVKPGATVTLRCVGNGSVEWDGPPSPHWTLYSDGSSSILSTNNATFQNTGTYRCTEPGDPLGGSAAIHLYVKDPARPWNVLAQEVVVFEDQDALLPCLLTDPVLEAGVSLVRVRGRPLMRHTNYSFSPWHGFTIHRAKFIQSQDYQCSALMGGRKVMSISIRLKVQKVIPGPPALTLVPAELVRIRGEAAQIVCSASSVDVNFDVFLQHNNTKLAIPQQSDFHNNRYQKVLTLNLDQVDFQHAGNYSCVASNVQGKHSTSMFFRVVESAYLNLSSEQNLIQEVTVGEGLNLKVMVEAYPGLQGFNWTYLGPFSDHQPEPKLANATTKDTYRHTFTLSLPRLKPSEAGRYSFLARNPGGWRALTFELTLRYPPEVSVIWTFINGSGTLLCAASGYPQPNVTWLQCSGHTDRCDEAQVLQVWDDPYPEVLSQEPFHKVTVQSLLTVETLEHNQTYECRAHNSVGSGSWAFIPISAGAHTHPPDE

B1: 969gH1gL1 (antibody, human IgG4 S228P, kappa, name in Kabat numbering, V domains shown)
VH: EVTLKESGPALVKPTQTLTLTCTFSGFSLTTYGMGVGWIRQPPGKALEWLANIWWDDDKYYNPSLKNRLTISKDTSKNQAVLTMTNMDPVDTATYYCARIGPIKYPTAPYRYFDFWGQGTMVTVSS
VL: DIQMTQSPSSLSASVGDRVTITCLASEDIYDNLAWYQKKPGKAPKLLIYYASSLQDGVPSRFSGSGSGTDYTLTISSLQPEDFATYFCLQDSEYPWTFGGGTKVEIKR
notes: Humanised IgG4 (S241P)/kappa; positions are Kabat; also called Ab969.g1
With B1 the Kd [1] was 3.9 pM, the koff [1] was 9.88e-06 s⁻¹ and the kon [1] was 2.51e+06 M⁻¹ s⁻¹. For the same binder, the Kd [2] was 2.4 pM, the koff [2] was 6.04e-06 s⁻¹ and the kon [2] was 2.57e+06 M⁻¹ s⁻¹. For the same binder, the Kd [3] was ≤ 2.4 pM, the koff [3] was ≤ 5e-06 s⁻¹ and the kon [3] was 2.04e+06 M⁻¹ s⁻¹. The Kd [4] was 3.2 pM, the koff [4] was 8.47e-06 s⁻¹ and the kon [4] was 2.65e+06 M⁻¹ s⁻¹. The Kd [5] was 3.2 pM, the koff [5] was 8.13e-06 s⁻¹ and the kon [5] was 2.58e+06 M⁻¹ s⁻¹.

B2: 969gH2gL2 (antibody, human IgG4 S228P, kappa, name in Kabat numbering, V domains shown)
VH: B1 VH with A80V
VL: B1 VL with K38Q
notes: Humanised IgG4 (S241P)/kappa; positions are Kabat
In the case of B2, the Kd [3] is reported as 3.4 pM, the koff [3] is reported as 6.11e-06 s⁻¹ and the kon [3] is reported as 1.78e+06 M⁻¹ s⁻¹.

B3: 969gH2gL8 (antibody, human IgG4 S228P, kappa, name in Kabat numbering, V domains shown)
VH: B1 VH with A80V
VL: B1 VL with K38Q, Y71F, F87Y
notes: Humanised IgG4 (S241P)/kappa, no donor residues; position is Kabat; also called Ab969.g4
B3 gave a Kd [1] of 2.5 pM, a koff [1] of 5e-06 s⁻¹ and a kon [1] of 1.97e+06 M⁻¹ s⁻¹. The Kd [6] was 2.3 pM, the koff [6] was 5e-06 s⁻¹ and the kon [6] was 2.18e+06 M⁻¹ s⁻¹. For the same binder, the Kd [2] was 3.4 pM, the koff [2] was 6.65e-06 s⁻¹ and the kon [2] was 1.94e+06 M⁻¹ s⁻¹. It also gave a Kd [3] of 4.1 pM, a koff [3] of 5e-06 s⁻¹ and a kon [3] of 1.23e+06 M⁻¹ s⁻¹. The Kd [4] was 2.5 pM, the koff [4] was 5e-06 s⁻¹ and the kon [4] was 1.99e+06 M⁻¹ s⁻¹. The Kd [5] was 2.8 pM, the koff [5] was 5.55e-06 s⁻¹ and the kon [5] was 1.97e+06 M⁻¹ s⁻¹.

B4: 969gH1gL8 (antibody, human IgG4 S228P, kappa, name in Kabat numbering, V domains shown)
VH: B1 VH
VL: B1 VL with K38Q, Y71F, F87Y
notes: as for B2
B4 gave a Kd [3] of 4.3 pM, a koff [3] of 5e-06 s⁻¹ and a kon [3] of 1.17e+06 M⁻¹ s⁻¹.

B5: 969gH2gL3 (antibody, human IgG4 S228P, kappa, name in Kabat numbering, V domains shown)
VH: B1 VH with A80V
VL: B1 VL with Y71F
notes: as for B2
For B5, the Kd [3] was 3.4 pM, the koff [3] was 7.29e-06 s⁻¹ and the kon [3] was 2.12e+06 M⁻¹ s⁻¹.

B6: 969gH1gL4 (antibody, human IgG4 S228P, kappa, name in Kabat numbering, V domains shown)
VH: B1 VH
VL: B1 VL with F87Y
notes: as for B2
Work on B6 yielded a Kd [3] of 2.1 pM, a koff [3] of 5e-06 s⁻¹ and a kon [3] of 2.39e+06 M⁻¹ s⁻¹.

B7: 969gH2gL7 SG (antibody, human IgG4 S228P, kappa, V domains shown)
VH: B1 VH with A80V
VL: B1 VL with K38Q, D56S, F87Y
notes: Humanised IgG4 (S241P)/kappa; also called 969H2gL7(SG)
For B7, the Kd [6] was 2 pM, the koff [6] was 5e-06 s⁻¹ and the kon [6] was 2.54e+06 M⁻¹ s⁻¹.

B8: 969gH1gL6 (antibody, human IgG4 S228P, kappa, name in Kabat numbering, V domains shown)
VH: B1 VH
VL: B1 VL with Y71F, F87Y
notes: as for B2
In the case of B8, the Kd [3] is reported as 4.4 pM, the koff [3] is reported as 5e-06 s⁻¹ and the kon [3] is reported as 1.15e+06 M⁻¹ s⁻¹.

B9: 969gH2gL5 (antibody, human IgG4 S228P, kappa, name in Kabat numbering, V domains shown)
VH: B1 VH with A80V
VL: B1 VL with K38Q, Y71F
notes: as for B2
B9 was tested, and the Kd [3] was 6.5 pM, the koff [3] was 5e-06 s⁻¹ and the kon [3] was 768000 M⁻¹ s⁻¹.

B10: 969gH1gL7 (antibody, human IgG4 S228P, kappa, name in Kabat numbering, V domains shown)
VH: B1 VH
VL: B1 VL with K38Q, F87Y
notes: Humanised IgG4 (S241P)/kappa; position is Kabat
B10 was tested, and the Kd [3] was 3.3 pM, the koff [3] was 5e-06 s⁻¹ and the kon [3] was 1.5e+06 M⁻¹ s⁻¹.

B11: 969gH1gL5 (antibody, human IgG4 S228P, kappa, name in Kabat numbering, V domains shown)
VH: B1 VH
VL: B1 VL with K38Q, Y71F
notes: as for B2
B11 was tested, and the Kd [3] was 6.6 pM, the koff [3] was 6.11e-06 s⁻¹ and the kon [3] was 926000 M⁻¹ s⁻¹.

B12: 969gH1gL2 (antibody, human IgG4 S228P, kappa, name in Kabat numbering, V domains shown)
VH: B1 VH
VL: B1 VL with K38Q
notes: as for B2
In the case of B12, the Kd [3] is reported as 3.4 pM, the koff [3] is reported as 5e-06 s⁻¹ and the kon [3] is reported as 1.46e+06 M⁻¹ s⁻¹.

B13: 969gH1gL3 (antibody, human IgG4 S228P, kappa, name in Kabat numbering, V domains shown)
VH: B1 VH
VL: B1 VL with Y71F
notes: as for B2
Binder B13 has a Kd [3] of 2.8 pM, a koff [3] of 5e-06 s⁻¹ and a kon [3] of 1.8e+06 M⁻¹ s⁻¹.

B14: 969gH2gL6 (antibody, human IgG4 S228P, kappa, name in Kabat numbering, V domains shown)
VH: B1 VH with A80V
VL: B1 VL with Y71F, F87Y
notes: Humanised IgG4 (S241P)/kappa; positions are Kabat; also called Ab969.g9
B14 was tested, and the Kd [3] was 4.4 pM, the koff [3] was 6.23e-06 s⁻¹ and the kon [3] was 1.4e+06 M⁻¹ s⁻¹.

B15: 969gH2gL1 (antibody, human IgG4 S228P, kappa, name in Kabat numbering, V domains shown)
VH: B1 VH with A80V
VL: B1 VL
notes: Humanised IgG4 (S241P)/kappa; positions are Kabat; also called Ab969.g6
B15 showed a Kd [1] of 2.6 pM, a koff [1] of 6.63e-06 s⁻¹ and a kon [1] of 2.54e+06 M⁻¹ s⁻¹. The Kd [2] was 3.7 pM, the koff [2] was 8.95e-06 s⁻¹ and the kon [2] was 2.44e+06 M⁻¹ s⁻¹. It also gave a Kd [3] of 2.3 pM, a koff [3] of 5.23e-06 s⁻¹ and a kon [3] of 2.27e+06 M⁻¹ s⁻¹. The Kd [4] was 3.6 pM, the koff [4] was 8.84e-06 s⁻¹ and the kon [4] was 2.43e+06 M⁻¹ s⁻¹. The Kd [5] was 3.3 pM, the koff [5] was 8.14e-06 s⁻¹ and the kon [5] was 2.47e+06 M⁻¹ s⁻¹.

B16: 969gH2gL4 (antibody, human IgG4 S228P, kappa, name in Kabat numbering, V domains shown)
VH: B1 VH with A80V
VL: B1 VL with F87Y
notes: Humanised IgG4 (S241P)/kappa; positions are Kabat; also called Ab969.g7
In the case of B16, the Kd [1] is reported as 4.6 pM, the koff [1] is reported as 1.15e-05 s⁻¹ and the kon [1] is reported as 2.52e+06 M⁻¹ s⁻¹. For the same binder, the “IC50, MCP-1 inhibition assay, Donor 1” value [7] was 0.0463 µg/mL, the “IC50, MCP-1 inhibition assay, Donor 2” value [7] was 0.0061 µg/mL and the “IC50 ratio against chimeric 969.g0 (number in parentheses), Donor 1” value [7] was 1.5 ratio. For the same binder, the “IC50 ratio against chimeric 969.g0 (number in parentheses), Donor 2” value [7] was 1.1 ratio, the “Mean chimeric/graft IC50 ratio” value [7] was 1.3 ratio and the Kd [2] was 3.6 pM. It also gave a koff [2] of 9.41e-06 s⁻¹, a kon [2] of 2.6e+06 M⁻¹ s⁻¹ and a Kd [3] of 4.4 pM. The koff [3] was 9.64e-06 s⁻¹, the kon [3] was 2.2e+06 M⁻¹ s⁻¹ and the Kd [4] was 3 pM. It also gave a koff [4] of 7.73e-06 s⁻¹, a kon [4] of 2.57e+06 M⁻¹ s⁻¹ and a Kd [5] of 3.7 pM. For the same binder, the koff [5] was 9.55e-06 s⁻¹ and the kon [5] was 2.56e+06 M⁻¹ s⁻¹.
